Tests used:
C1q = assay: SPR (Biacore 8K+), antibody captured by anti-human IgG Fc, C1q injected at 25 nM, mean response
[1] = molecular target: cynomolgus FcRn (cynomolgus) (UniProt Q8SPV9); assay: SPR (Biacore 8K+), antibody captured by anti-human kappa, cynomolgus FcRn injected, pH 5.8; pH 5.8
human FcRn (human) = human FcRn (human) (UniProt P55899); assay: SPR (Biacore 8K+), antibody captured by anti-human kappa, human FcRn injected, pH 5.8; pH 5.8
Chain of human FcRn (human) (P55899 24-297 limits assumed, form in doubt, chain 1 of 2): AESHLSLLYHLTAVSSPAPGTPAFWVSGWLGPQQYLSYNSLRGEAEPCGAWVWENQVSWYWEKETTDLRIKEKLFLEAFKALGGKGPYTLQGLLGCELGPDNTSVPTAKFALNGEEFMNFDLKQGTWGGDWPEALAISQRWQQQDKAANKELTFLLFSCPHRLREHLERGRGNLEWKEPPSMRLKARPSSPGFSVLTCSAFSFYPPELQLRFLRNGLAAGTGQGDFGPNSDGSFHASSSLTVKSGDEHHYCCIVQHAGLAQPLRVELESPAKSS
Chain of human FcRn (human) (chain, as listed by the source limits assumed, form in doubt, chain 2 of 2): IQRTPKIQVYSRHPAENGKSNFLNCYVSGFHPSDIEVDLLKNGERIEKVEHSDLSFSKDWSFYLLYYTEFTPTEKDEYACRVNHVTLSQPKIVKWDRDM

Chain of C1q (P02745 23-245, chain 1 of 3): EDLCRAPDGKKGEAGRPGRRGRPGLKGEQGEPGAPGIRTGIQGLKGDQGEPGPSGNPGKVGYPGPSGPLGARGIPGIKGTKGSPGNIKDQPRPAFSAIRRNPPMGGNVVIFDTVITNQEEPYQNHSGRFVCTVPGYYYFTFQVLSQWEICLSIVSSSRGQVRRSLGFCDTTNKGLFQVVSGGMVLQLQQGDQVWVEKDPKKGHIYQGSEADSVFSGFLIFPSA
Chain of C1q (P02746 28-253, chain 2 of 3, further chain): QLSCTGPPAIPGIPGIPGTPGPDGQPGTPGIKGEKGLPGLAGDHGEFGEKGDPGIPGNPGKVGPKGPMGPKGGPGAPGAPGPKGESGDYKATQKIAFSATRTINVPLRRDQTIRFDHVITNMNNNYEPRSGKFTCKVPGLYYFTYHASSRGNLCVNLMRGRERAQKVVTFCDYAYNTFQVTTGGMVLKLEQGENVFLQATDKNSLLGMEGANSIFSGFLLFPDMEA
Chain of C1q (P02747 29-245, chain 3 of 3, further chain): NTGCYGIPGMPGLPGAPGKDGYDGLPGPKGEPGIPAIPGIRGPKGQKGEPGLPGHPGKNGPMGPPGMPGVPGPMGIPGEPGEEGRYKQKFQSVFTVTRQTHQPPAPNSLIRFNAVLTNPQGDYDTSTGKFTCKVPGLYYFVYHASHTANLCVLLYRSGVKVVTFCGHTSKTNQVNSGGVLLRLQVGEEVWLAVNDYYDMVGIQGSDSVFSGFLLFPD

Rituximab, an anti-CD20 antibody
RU at 25 nM C1q (C1q): 386 RU

positive control based on the sequences of the anti-hOX40L antibody amlitelimab
Kd [1]: 0.926 µM
Kd (human FcRn (human)): 1.11 µM
